# Laboratory results: US20250108100A1, “C-TERMINAL FRAGMENT OF APOLIPOPROTEIN E AND APPLICATION THEREOF IN INHIBITING y-SECRETASE ACTIVITY” (SYNPHATEC (SHANGHAI) BIOPHARMACEUTICAL TECHNOLOGY CO., LTD., priority 2022, published 2025)
# B1: CT ND4: SEQ ID NO: 21; ApoE CT with 4 N-terminal amino acids deleted (protein)
# chain: EMGSRTRDRLDEVKEQVAEVRAKLEEQAQQIRLQAEAFQARLKSWFEPLVEDMQRQWAGLVEKVQAAVGTSAAPVPSDNH
# B2: CT NA4: SEQ ID NO: 16; ApoE CT with 4 original ApoE residues added to the N-terminus (protein)
# chain: ERLRARMEEMGSRTRDRLDEVKEQVAEVRAKLEEQAQQIRLQAEAFQARLKSWFEPLVEDMQRQWAGLVEKVQAAVGTSAAPVPSDNH
# B3: CT ND3CD11: SEQ ID NO: 26; ApoE CT minus 3 N-terminal and 11 C-terminal residues (protein)
# chain: EEMGSRTRDRLDEVKEQVAEVRAKLEEQAQQIRLQAEAFQARLKSWFEPLVEDMQRQWAGLVEKVQAAVG
# B4: CT NA1: SEQ ID NO: 13; ApoE CT with 1 original ApoE residue added to the N-terminus (protein)
# chain: RARMEEMGSRTRDRLDEVKEQVAEVRAKLEEQAQQIRLQAEAFQARLKSWFEPLVEDMQRQWAGLVEKVQAAVGTSAAPVPSDNH
# B5: CT CD10: SEQ ID NO: 24; ApoE CT with 10 C-terminal amino acids deleted (protein)
# chain: ARMEEMGSRTRDRLDEVKEQVAEVRAKLEEQAQQIRLQAEAFQARLKSWFEPLVEDMQRQWAGLVEKVQAAVGT
# B6: CT NA5: SEQ ID NO: 17; ApoE CT with 5 original ApoE residues added to the N-terminus (protein)
# chain: GERLRARMEEMGSRTRDRLDEVKEQVAEVRAKLEEQAQQIRLQAEAFQARLKSWFEPLVEDMQRQWAGLVEKVQAAVGTSAAPVPSDNH
# B7: CT ND5: SEQ ID NO: 22; ApoE CT with 5 N-terminal amino acids deleted (protein)
# chain: MGSRTRDRLDEVKEQVAEVRAKLEEQAQQIRLQAEAFQARLKSWFEPLVEDMQRQWAGLVEKVQAAVGTSAAPVPSDNH
# B8: CT ND2: SEQ ID NO: 19; ApoE CT with 2 N-terminal amino acids deleted (protein)
# chain: MEEMGSRTRDRLDEVKEQVAEVRAKLEEQAQQIRLQAEAFQARLKSWFEPLVEDMQRQWAGLVEKVQAAVGTSAAPVPSDNH
# B9: CT NA2: SEQ ID NO: 14; ApoE CT with 2 original ApoE residues added to the N-terminus (protein)
# chain: LRARMEEMGSRTRDRLDEVKEQVAEVRAKLEEQAQQIRLQAEAFQARLKSWFEPLVEDMQRQWAGLVEKVQAAVGTSAAPVPSDNH
# B10: CT NA3: SEQ ID NO: 15; ApoE CT with 3 original ApoE residues added to the N-terminus (protein)
# chain: RLRARMEEMGSRTRDRLDEVKEQVAEVRAKLEEQAQQIRLQAEAFQARLKSWFEPLVEDMQRQWAGLVEKVQAAVGTSAAPVPSDNH
# B11: CT ND3CD15: SEQ ID NO: 30; ApoE CT minus 3 N-terminal and 15 C-terminal residues (protein)
# chain: EEMGSRTRDRLDEVKEQVAEVRAKLEEQAQQIRLQAEAFQARLKSWFEPLVEDMQRQWAGLVEKVQ
# B12: CT ND3CD20: SEQ ID NO: 31; ApoE CT minus 3 N-terminal and 20 C-terminal residues (protein)
# chain: EEMGSRTRDRLDEVKEQVAEVRAKLEEQAQQIRLQAEAFQARLKSWFEPLVEDMQRQWAGL
# B13: CT ND3CD13: SEQ ID NO: 28; ApoE CT minus 3 N-terminal and 13 C-terminal residues (protein)
# chain: EEMGSRTRDRLDEVKEQVAEVRAKLEEQAQQIRLQAEAFQARLKSWFEPLVEDMQRQWAGLVEKVQAA
# B14: CT ND3: SEQ ID NO: 20; ApoE CT with 3 N-terminal amino acids deleted (protein)
# chain: EEMGSRTRDRLDEVKEQVAEVRAKLEEQAQQIRLQAEAFQARLKSWFEPLVEDMQRQWAGLVEKVQAAVGTSAAPVPSDNH
# B15: CT ND3CD12: SEQ ID NO: 27; ApoE CT minus 3 N-terminal and 12 C-terminal residues (protein)
# chain: EEMGSRTRDRLDEVKEQVAEVRAKLEEQAQQIRLQAEAFQARLKSWFEPLVEDMQRQWAGLVEKVQAAV
# B16: CT ND1: SEQ ID NO: 18; ApoE CT with 1 N-terminal amino acid deleted (protein)
# chain: RMEEMGSRTRDRLDEVKEQVAEVRAKLEEQAQQIRLQAEAFQARLKSWFEPLVEDMQRQWAGLVEKVQAAVGTSAAPVPSDNH
# B17: CT ND3CD14: SEQ ID NO: 29; ApoE CT minus 3 N-terminal and 14 C-terminal residues (protein)
# chain: EEMGSRTRDRLDEVKEQVAEVRAKLEEQAQQIRLQAEAFQARLKSWFEPLVEDMQRQWAGLVEKVQA
# B18: CT ND3CD10: SEQ ID NO: 25; ApoE CT minus 3 N-terminal and 10 C-terminal residues (protein)
# chain: EEMGSRTRDRLDEVKEQVAEVRAKLEEQAQQIRLQAEAFQARLKSWFEPLVEDMQRQWAGLVEKVQAAVGT
# B19: CT CD5: SEQ ID NO: 23; ApoE CT with 5 C-terminal amino acids deleted (protein)
# chain: ARMEEMGSRTRDRLDEVKEQVAEVRAKLEEQAQQIRLQAEAFQARLKSWFEPLVEDMQRQWAGLVEKVQAAVGTSAAPV
# Tested on: human APP and β-secretase co-expressed in HEK 293T cells
# Assay: HEK 293T cells co-expressing APP and β-secretase (BACE1): Aβ ELISA and β-CTF Western blot
# Format: cell-based
# Settings: APP and β-secretase co-expressed, ELISA, vs GFP control
# Experimental: The experiment was performed according to the standard procedure in the ELISA analysis kit of Invitrogen Company. • a) The target protein was expressed in HEK 293T cell line. Cells were subcultured one day before transfection, and transfection was performed when the degree of cell adhesion reached 70%-80%. The transfection reagent was lipofectamine2000 (ThermoFisher). • b) 4-6 hours post transfection, medium were replaced with fresh cell culture medium. • c) 36-48 hours post transfection, the cell culture medium was collected, and then the ELISA process was performed or the cell culture medium was frozen in a −80° C. refrigerator. • d) 50 μl of standard samples and experimental samples were added to each well of the 96-well plate. • e) 50 μl of human-derived Aβ40 or Aβ42 or mouse-derived Aβ40 detection antibody was added to each well of the 96-well plate. • f) The above samples were shaken gently and placed at room temperature for 3 hours. • g) The liquid in the well were removed, and the plate was washed 4 times with 1× wash buffer. • h) 100 μl of the buffer containing 1× anti-Rabbit IgG HRP was added. • i) The plate was shaken gently and placed at room temperature for […]. • j) The liquid in the well were removed, and the well was washed 4 times with 1× wash buffer. • k) 100 μl of Stabilized Chromogen was added to each well, and the plate was placed in the dark for 30 minutes at room temperature. • l) 100 μl of Stop Solution was added to each well. • m) The absorbance at 450 nm was measured with a microplate reader. 2.4 qRT-PCR
# 48 hours after transfection of HEK 293T cells and N2A cells, or 4.5 days after lentivirus infection of neurons, media and lysates were collected. Aβ40 and Aβ42 in the culture medium and cell lysates were detected by an Aβ ELISA kit as indicated in the protocol. (Invitrogen Technology; KHB3481 for human Aβ40, KHB3441 for human Aβ42 and KMB3481 for mouse Aβ40).
# Data were analyzed by GraphPad Prism software (v6) using unpaired, paired, or one-sample t-tests. Aβ40 and Aβ42 levels were normalized to the corresponding GFP controls. α-CTF levels were normalized to FL-APP and corresponding GFP controls. All data are represented as mean±SEM. Statistical significance was defined as p<0.05. One, two, three and four stars (*) in the graph indicate p-values <0.05, <0.01, <0.001 and <0.0001, respectively.
row,Molecule,production of Aβ40
1,B1,can still reduce Aβ40
2,B2,completely lost the ability to reduce Aβ
3,B3,can still significantly reduce Aβ40
4,B4,still reduces the production of Aβ40
5,B5,still reduce the production of Aβ
6,B6,completely lost the ability to reduce Aβ
7,B7,can still reduce Aβ40
8,B8,can still reduce Aβ40
9,B9,completely lost the ability to reduce Aβ
10,B10,completely lost the ability to reduce Aβ
11,B11,can still significantly reduce Aβ40
12,B12,can still significantly reduce Aβ40
13,B13,can still significantly reduce Aβ40
14,B14,can still reduce Aβ40
15,B15,can still significantly reduce Aβ40
16,B16,can still reduce Aβ40
17,B17,can still significantly reduce Aβ40
18,B18,can still significantly reduce Aβ40
19,B19,still reduce the production of Aβ
